For the assay, the target named is T1, recombinant EF1a protein (rEF1a), elongation factor 1 alpha of Entamoeba histolytica (Entamoeba histolytica, UniProt P31018 1-442).
T1 construct: Elongation factor 1 alpha (EF1a) of Entamoeba histolytica
T1 sequence (looked up): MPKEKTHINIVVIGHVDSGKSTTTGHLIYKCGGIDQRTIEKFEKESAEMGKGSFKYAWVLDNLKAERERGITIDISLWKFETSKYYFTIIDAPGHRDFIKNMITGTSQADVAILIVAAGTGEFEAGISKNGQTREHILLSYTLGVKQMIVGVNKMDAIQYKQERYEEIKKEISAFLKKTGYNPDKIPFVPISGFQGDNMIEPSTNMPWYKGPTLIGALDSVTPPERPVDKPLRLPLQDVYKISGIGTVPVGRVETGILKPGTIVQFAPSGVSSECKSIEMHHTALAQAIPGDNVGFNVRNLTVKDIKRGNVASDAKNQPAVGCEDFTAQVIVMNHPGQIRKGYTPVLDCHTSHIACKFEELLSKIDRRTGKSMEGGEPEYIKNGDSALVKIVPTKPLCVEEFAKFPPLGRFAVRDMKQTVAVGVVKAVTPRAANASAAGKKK
The assay can be described thus: BLI; Octet-Red96; Igl-C (30 ug/mL, sodium acetate pH 4.0) or BSA (sodium acetate pH 5.0) immobilised on activated AR2G biosensors; rEF1a as analyte, twofold dilutions 4000 to 250 nM; running buffer pH 7.4, 1x Kinetics buffer, 30 °C; 1:1 binding model. The conditions noted are these: both partners purified. On the technique in general: In BLI a coated tip is dipped into the sample, and binding shifts an interference pattern.

Among the data in article PMC7558290, “Evaluation on Elongation Factor 1 Alpha of Entamoeba histolytica Interaction with the Intermediate Subunit of the Gal/GalNAc Lectin and Actin in Phagocytosis” (Pathogens, 2020) are Kd, koff and kon values, retold here.

B1: C-terminal fragment of the intermediate subunit of the Gal/GalNAc lectin (Igl-C) (domain or fragment)
chain: EGPNAEDKKKSCAQLNNNCKKEGKYEISDGFVTCLDCDDSAYIVGSQVGACTQCSPNAFKDENNKCQLCSTKQSQYGHCAACSATACITCEDINLILTGEKPCTVCKDGFYQIENATDGVYCSPCPAKCKTCKYNTTSKKVECVTCTEQRLKDIKAPECACPTGTVQLENGTCQSCSDLSKYPGCKKTDSCNVDSRTGFIYATECSDGFSGRSPYSNCTTCTKSNYYPKEGEKNGCAKCDDKCATCSDKDTCLTCADPLKVGSKCDGCKTGYYMSNGECKPCTNHCSECSSAAECTVCESDTYKVISGNGCNSCVDGFYFDEIKGTCIPCTSPCTKCVGVKKDCEEQETGCNSEKKKIVEECTKCSTKDHIAEVPVNGACVCAYGYVEGTSTEDNKIECQACKAKVNEFCDSCNSKDCLRCNAEYLEAKGGECVCVEGYYTSSWGSCIPCSRHMPHCTKCTGEGECTTCEDGWKLKDGKCNGAKGI
In the case of B1, the dissociation constant Kd (usually the free concentration of one partner at which half of the binding sites on the other are occupied at equilibrium, for simple one-to-one binding) came out at 90.7 nM; the koff (commonly the first-order rate constant of dissociation) turned out to be 0.000347 s⁻¹; the kon (as a rule, the rate constant with which the complex forms) was 3810 M⁻¹ s⁻¹.
